Results as given in paper PMC11209011.

Tests used:
[1] = target: recombinant Fc-tagged CD55 (UniProt P08174); assay: SPR; Biacore T200, 25°C; CD55-Fc immobilized on a Protein G chip, tetramers or monomers as analyte; 150mM NaCl, 0.05% BSA, 0.05% Tween-20, pH 7,5; KD calculated from kon and koff; biological duplicate
Δ2 CD55 IRES GFP = assay: flow cytometry on cells

Sequence of UniProt P08174 (P08174 35-353): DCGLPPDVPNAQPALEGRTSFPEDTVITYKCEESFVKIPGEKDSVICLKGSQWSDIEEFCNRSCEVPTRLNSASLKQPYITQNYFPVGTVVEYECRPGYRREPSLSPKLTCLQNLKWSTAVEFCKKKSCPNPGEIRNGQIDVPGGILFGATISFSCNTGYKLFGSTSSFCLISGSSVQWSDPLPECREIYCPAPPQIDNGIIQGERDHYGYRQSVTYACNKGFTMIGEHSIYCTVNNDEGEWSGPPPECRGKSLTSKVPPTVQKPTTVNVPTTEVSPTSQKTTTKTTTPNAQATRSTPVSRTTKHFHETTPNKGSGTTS

Kd [1]: 1400 nM
reduction of the interaction against full length CD55 (Δ2 CD55 IRES GFP): 50%
Substance: HLA-C∗07:01-VRIG tetramer (from UniProt P61769 21-119) (peptide-MHC)
